According to patent publication US20140094415A1:
Where two headings read alike, the source gives them in different places. Where no end group is shown, it is not given here.

How the values were obtained:
[1] = molecular target: T1, HIS-PDZ1-2 protein (PSD-95 PDZ1-2 tandem) (human), P78352; assay: fluorescence polarization, saturation binding: increasing PDZ1-2 on 0.5 nM probe
[2] = molecular target: T1, HIS-PDZ1-2 protein (PSD-95 PDZ1-2 …); assay: fluorescence polarization, heterologous competition against AB143 probe
[3] = molecular target: T1, HIS-PDZ1-2 protein (PSD-95 PDZ1-2 …); assay: as above; remark: listed apart in the source

| Binder | Kd [1] | Ki [2] | Ki [3] |
| --- | --- | --- | --- |
| IETAV (also: dimer: two IETAV chains on NPEG4 scaffold, 5-FAM label, position not given here) [5-FAM-labeled NPEG4(IETAV)2 probe, AB143] | 7.8 nM | – | – |
| IETAV (modifications not checked) [NPEG4(IETAV)2 (AB141)] | – | 9.3 nM | 9.5 nM |
| IETAV (modifications not checked) [PEG4(IETAV)2 (AB125)] | – | – | 9.5 nM |
